Measurements: patent US20240226039A1, “IMMUNE CHECKPOINT INHIBITOR AND HDAC INHIBITOR COMBINATION THERAPY STRATEGY” (H. Lee Moffitt Cancer Center and Research Institute, Inc., priority 2021, published 2024)

Key:
[1] = design: species or system human; conditions: in vivo
Experimental: Key inclusion criteria: Histologically confirmed mNSCLCm Treatment naïve, and PD-L1 expression≥1% are eligible. Key exclusion criteria: Untreated, progressive, or symptomatic brain metastases, Active uncontrolled autoimmune disorders, and Systemic steroid use equivalent to >10 mg prednisone. […] The primary endpoint was overall response rate (ORR). Additional endpoints included correlative analyses, DOR, PFS and OS. The trial used a Simon Mini-Max two-stage design with interim analysis planned after the first stage when 23 patients were enrolled in each arm.

[2] = tested on: metastatic NSCLC (mNSCLC); assay: Phase II randomized trial, best response / ORR; format: in vivo, human
Experimental: Key exclusion criteria: Untreated, progressive, or symptomatic brain metastases, Active uncontrolled autoimmune disorders, and Systemic steroid use equivalent to >10 mg prednisone. […] The primary endpoint was overall response rate (ORR). Additional endpoints included correlative analyses, DOR, PFS and OS. The trial used a Simon Mini-Max two-stage design with interim analysis planned after the first stage when 23 patients were enrolled in each arm.

CD8+ T cells = assay: IHC of CD8+ TIL in pre- and on-treatment core biopsies; format: in vivo, human; conditions: biopsy cycle 1 days 15-21; p=0.001 Arm A, p=0.002 Arm B
Experimental: IHC was performed to determine presence of CD8+ T cells and CD33+ myeloid cells. Biopsies were scored using a 0-3 scale separately in the tumor stroma and tumor beds.

## pembrolizumab [Arm A]
[1]
  ALT increased Gr 1: 0
  ALT increased Gr 2: 0
  ALT increased Gr 3: 1 (4%)
  ALT increased Gr 4: 0
  ALT increased Total: 1 (4%)
  AST increased Gr 1: 0
  AST increased Gr 2: 0
  AST increased Gr 3: 1 (4%)
  AST increased Gr 4: 0
  AST increased Total: 1 (4%)
  Alkaline phosphatase increased Gr 1: 0
  Alkaline phosphatase increased Gr 2: 0
  Alkaline phosphatase increased Gr 3: 0
  Alkaline phosphatase increased Gr 4: 0
  Alkaline phosphatase increased Total: 0
  Alopecia Gr 1: 0
  Alopecia Gr 2: 0
  Alopecia Gr 3: 0
  Alopecia Gr 4: 0
  Alopecia Total: 0
  Anemia Gr 1: 0
  Anemia Gr 2: 0
  Anemia Gr 3: 0
  Anemia Gr 4: 0
  Anemia Total: 0
  Anorexia Gr 1: 1 (4%)
  Anorexia Gr 2: 0
  Anorexia Gr 3: 0
  Anorexia Gr 4: 0
  Anorexia Total: 1 (4%)
  Arthralgia Gr 1: 0
  Arthralgia Gr 2: 0
  Arthralgia Gr 3: 0
  Arthralgia Gr 4: 0
  Arthralgia Total: 0
  Chest pain - cardiac Gr 1: 0
  Chest pain - cardiac Gr 2: 0
  Chest pain - cardiac Gr 3: 1 (4%)
  Chest pain - cardiac Gr 4: 0
  Chest pain - cardiac Total: 1 (4%)
  Creatinine increased Gr 1: 0
  Creatinine increased Gr 2: 0
  Creatinine increased Gr 3: 0
  Creatinine increased Gr 4: 0
  Creatinine increased Total: 0
  Diarrhea Gr 2: 1 (4%)
  Diarrhea Gr 3: 0
  Diarrhea Gr 4: 0
  Diarrhea Total: 3 (13%)
  Dysgeusia Gr 1: 0
  Dysgeusia Gr 2: 0
  Dysgeusia Gr 3: 0
  Dysgeusia Gr 4: 0
  Dysgeusia Total: 0
  Fatigue Gr 1: 1 (4%)
  Fatigue Gr 2: 1 (4%)
  Fatigue Gr 3: 0
  Fatigue Gr 4: 0
  Fatigue Total: 2 (8%)
  Heart failure Gr 1: 0
  Heart failure Gr 2: 0
  Heart failure Gr 3: 0
  Heart failure Gr 4: 0
  Heart failure Total: 0
  Hyponatremia Gr 1: 0
  Hyponatremia Gr 2: 0
  Hyponatremia Gr 3: 1 (4%)
  Hyponatremia Gr 4: 0
  Hyponatremia Total: 1 (4%)
  Hypothyroidism Gr 1: 0
  Hypothyroidism Gr 2: 1 (4%)
  Hypothyroidism Gr 3: 0
  Hypothyroidism Gr 4: 0
  Hypothyroidism Total: 1 (4%)
  Nausea Gr 1: 0
  Nausea Gr 2: 0
  Nausea Gr 3: 0
  Nausea Gr 4: 0
  Nausea Total: 0
  Pain Gr 1: 0
  Pain Gr 2: 0
  Pain Gr 3: 0
  Pain Gr 4: 0
  Pain Total: 0
  Pericardial effusion/ tamponade Gr 1: 0
  Pericardial effusion/ tamponade Gr 2: 0
  Pericardial effusion/ tamponade Gr 3: 0
  Pericardial effusion/ tamponade Gr 4: 0
  Pericardial effusion/ tamponade Total: 0
  Platelet count decreased Gr 1: 0
  Platelet count decreased Gr 2: 0
  Platelet count decreased Gr 3: 0
  Platelet count decreased Gr 4: 0
  Platelet count decreased Total: 0
  Pneumonitis Gr 1: 0
  Pneumonitis Gr 2: 0
  Pneumonitis Gr 3: 1 (4%)
  Pneumonitis Gr 4: 0
  Pneumonitis Total: 1 (4%)
  Pruritis Gr 2: 0
  Pruritis Gr 3: 0
  Pruritis Gr 4: 0
  QT prolongation Gr 1: 0
  QT prolongation Gr 2: 0
  QT prolongation Gr 3: 0
  QT prolongation Gr 4: 0
  QT prolongation Total: 0
  Rash maculo-papular Gr 1: 0
  Rash maculo-papular Gr 2: 0
  Rash maculo-papular Gr 3: 1 (4%)
  Rash maculo-papular Gr 4: 0
  Rash maculo-papular Total: 1 (4%)
  Thromboembolic event Gr 1: 0
  Thromboembolic event Gr 2: 0
  Thromboembolic event Gr 3: 0
  Thromboembolic event Gr 4: 0
  Thromboembolic event Total: 0
  Total AEs Gr 1: 8
  Total AEs Gr 2: 6
  Total AEs Gr 3: 6
  Total AEs Gr 4: 0
  Total AEs Total: 20
  Total irAEs Gr 1: 4
  Total irAEs Gr 2: 2
  Total irAEs Gr 3: 3
  Total irAEs Gr 4: 0
  Total irAEs Total: 9
  Vomiting Gr 1: 0
  Vomiting Gr 2: 0
  Vomiting Gr 3: 0
  Vomiting Gr 4: 0
  Vomiting Total: 0
  irAE AST increased Gr 1: 0
  irAE AST increased Gr 2: 0
  irAE AST increased Gr 3: 0
  irAE AST increased Gr 4: 0
  irAE AST increased Total: 0
  irAE Adrenal insufficiency Gr 1: 0
  irAE Adrenal insufficiency Gr 2: 1 (4%)
  irAE Adrenal insufficiency Gr 3: 0
  irAE Adrenal insufficiency Gr 4: 0
  irAE Adrenal insufficiency Total: 1 (4%)
  irAE Arthralgia Gr 1: 0
  irAE Arthralgia Gr 2: 0
  irAE Arthralgia Gr 3: 0
  irAE Arthralgia Gr 4: 0
  irAE Arthralgia Total: 0
  irAE Brachial plexopathy Gr 1: 0
  irAE Brachial plexopathy Gr 2: 0
  irAE Brachial plexopathy Gr 3: 0
  irAE Brachial plexopathy Gr 4: 0
  irAE Brachial plexopathy Total: 0
  irAE Colitis Gr 1: 0
  irAE Colitis Gr 2: 1 (4%)
  irAE Colitis Gr 3: 0
  irAE Colitis Gr 4: 0
  irAE Colitis Total: 1 (4%)
  irAE Hepatitis Gr 1: 0
  irAE Hepatitis Gr 2: 0
  irAE Hepatitis Gr 3: 1 (4%)
  irAE Hepatitis Gr 4: 0
  irAE Hepatitis Total: 1 (4%)
  irAE Hypothyroidism Gr 1: 0
  irAE Hypothyroidism Gr 2: 0
  irAE Hypothyroidism Gr 3: 0
  irAE Hypothyroidism Gr 4: 0
  irAE Hypothyroidism Total: 0
  irAE Pancreatic atrophy Gr 1: 0
  irAE Pancreatic atrophy Gr 2: 0
  irAE Pancreatic atrophy Gr 3: 0
  irAE Pancreatic atrophy Gr 4: 0
  irAE Pancreatic atrophy Total: 0
  irAE Pericardial effusion Gr 1: 0
  irAE Pericardial effusion Gr 2: 0
  irAE Pericardial effusion Gr 3: 0
  irAE Pericardial effusion Gr 4: 0
  irAE Pericardial effusion Total: 0
  irAE Pneumonitis Gr 1: 0
  irAE Pneumonitis Gr 2: 0
  irAE Pneumonitis Gr 3: 1 (4%)
  irAE Pneumonitis Gr 4: 0
  irAE Pneumonitis Total: 1 (4%)
  irAE Rash/pruritis/dry skin Gr 1: 4 (17%)
  irAE Rash/pruritis/dry skin Gr 2: 0
  irAE Rash/pruritis/dry skin Gr 3: 1 (4%)
  irAE Rash/pruritis/dry skin Gr 4: 0
  irAE Rash/pruritis/dry skin Total: 5 (21%)
  treatment discontinued due to toxicity, number of patients: 2 patients
  treatment discontinued due to toxicity, share of patients: 8%
[2]; immunotherapy naive patients, p=0.024
  disease control rate, interim analysis: 58%
[2]; immunotherapy naive patients, p=0.026
  PRs, interim analysis: 25%
[2]; in vivo
  ORR in pts with low pre-treatment tumor bed TIL (score=1): 33.3%
[2]; patients n (%), first-line mNSCLC
  Best Response: Progressive Disease: 10 (42%)
[2]; patients n (%), first-line mNSCLC, p = 0.024 between arms
  Disease Control Rate: 14 (58%)
[2]; patients n (%), first-line mNSCLC, p = 0.026 between arms
  Best Response: Partial Response: 6 (25%)
CD8+ T cells
  change from pre-treatment to on-treatment CD8+ TIL scores: significant increase
